# Paper PMC6056640, “Ghrelin Through GHSR1a and OX1R Heterodimers Reveals a Gαs–cAMP-cAMP Response Element Binding Protein Signaling Pathway in Vitro” (Frontiers in Molecular Neuroscience, 2018)
# T1: OX1R-Rluc (human, UniProt O43613 1-425)
# T1 construct: Orexin type 1 receptor (OX1R), human cDNA (pcDNA3.1-OX1R, cDNA Resource Centre); construct made 'as described'; BRET donor; also called orexin type 1 receptor; Orexin 1 receptor; source: HEK293, transiently transfected, in living cells; not shown: Rluc, C-terminal, kept
# T1 sequence (looked up): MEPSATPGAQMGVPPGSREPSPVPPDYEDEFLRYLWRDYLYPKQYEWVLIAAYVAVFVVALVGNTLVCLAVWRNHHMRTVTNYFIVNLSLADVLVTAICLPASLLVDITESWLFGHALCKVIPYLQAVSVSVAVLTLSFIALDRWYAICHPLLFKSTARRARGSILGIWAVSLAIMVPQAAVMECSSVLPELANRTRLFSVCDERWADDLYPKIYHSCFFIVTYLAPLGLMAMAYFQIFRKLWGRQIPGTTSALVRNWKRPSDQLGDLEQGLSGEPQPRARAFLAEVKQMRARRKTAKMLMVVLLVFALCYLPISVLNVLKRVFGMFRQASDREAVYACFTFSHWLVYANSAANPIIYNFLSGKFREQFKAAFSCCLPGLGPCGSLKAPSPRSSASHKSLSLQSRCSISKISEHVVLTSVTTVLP
# Molecular target: T1, OX1R-Rluc
# Test: FRET or BRET; BRET in living HEK293 cells; donor (Rluc fusion) and acceptor (EYFP fusion) plasmids 1:3; coelenterazine h 5 μM; also after ghrelin (100 nM) and/or orexin-A (100 nM) or vehicle for 10 min
# Details: partners not purified
binder,measurement,value
"GHSR1a-EYFP (receptor, UniProt Q92847 1-366, looked up, Growth hormone secretagogue receptor 1α (GHSR1a); ORF inserted into the EYFP-N1 vector; cDNA from pcDNA3.1-GHSR1a (cDNA Resource Centre); BRET and FRET acceptor; The FRET methods call it EYFP-GHSR1a, but the construction paragraph puts EYFP on the C-terminus; also called growth hormone secretagogue receptor 1α; EYFP-GHSR1a; source: HEK293, transiently transfected, in living cells; not shown: …) MWNATPSEEPGFNLTLADLDWDASPGNDSLGDELLQLFPAPLLAGVTATCVALFVVGIAGNLLTMLVVSRFRELRTTTNLYLSSMAFSDLLIFLCMPLDLVRLWQYRPWNFGDLLCKLFQFVSESCTYATVLTITALSVERYFAICFPLRAKVVVTKGRVKLVIFVIWAVAFCSAGPIFVLVGVEHENGTDPWDTNECRPTEFAVRSGLLTVMVWVSSIFFFLPVFCLTVLYSLIGRKLWRRRRGDAVVGASLRDQNHKQTVKMLAVVVFAFILCWLPFHVGRYLFSKSFEPGSLEIAQISQYCNLVSFVLFYLSAAINPILYNIMSKKYRVAVFRLLGFEPFSQRKLSTLKDESSRAWTESSINT",mBRET ratio,190
